From US20240261333A1, “NOVEL TARGETS FOR ENHANCING ANTI-TUMOR IMMUNITY” (THE BROAD INSTITUTE, INC., priority 2021, published 2024) come the findings set out here.

In the assay the target is T1, B3GNT2 (Homo sapiens, UniProt Q9NY97).
T1 construct: The respective ORFs of candidate genes [CD274 (NM_014143), MCL1 (NM_021960), JUNB (NM_002229), and B3GNT2 (NM_006577)] were synthesized; expressed in transfected cells; host or cells: A375 melanoma cells (lentiviral ORF overexpression)
T1 sequence (Q9NY97 1-397): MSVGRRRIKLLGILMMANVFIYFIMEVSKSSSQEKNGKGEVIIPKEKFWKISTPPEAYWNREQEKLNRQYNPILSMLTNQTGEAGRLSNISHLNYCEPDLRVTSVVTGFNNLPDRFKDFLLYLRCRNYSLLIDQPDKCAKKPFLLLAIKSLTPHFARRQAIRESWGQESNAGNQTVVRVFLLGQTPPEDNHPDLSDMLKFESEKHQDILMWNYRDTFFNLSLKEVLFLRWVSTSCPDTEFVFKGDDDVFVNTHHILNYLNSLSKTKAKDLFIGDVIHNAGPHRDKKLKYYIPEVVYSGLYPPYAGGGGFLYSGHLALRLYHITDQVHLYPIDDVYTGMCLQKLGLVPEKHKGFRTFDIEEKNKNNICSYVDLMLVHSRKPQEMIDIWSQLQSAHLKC
As to the kind of experiment: Co-IP of FLAG-tagged B3GNT2 followed by mass spectrometry. In kind it is cell-based. The arrangement: C-term IgG / C-term flag: unit not given here. An outline of the steps:
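FLAG-tagged B3GNT2 immunoprecipitated from cell lysate (HEPES, 1% Triton X-100, 150 mM NaCl) with anti-FLAG versus […], overnight at 4° C, then captured on Protein A/G magnetic beads for 4 h. Two biological replicates per condition. Peptides fractionated and analyzed by nano-LC on an Orbitrap Elite in data-dependent mode.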

The mark [1] stands for this setting: Co-IP followed by mass spectrometry of B3GNT2, C-term tag, FLAG pull-down.
Where [2] appears, read: Co-IP followed by mass spectrometry of B3GNT2, C-term tag, IgG pull-down.
[3] abbreviates: Co-IP followed by mass spectrometry of B3GNT2, N-term tag, FLAG pull-down.
Where [4] appears, read: Co-IP followed by mass spectrometry of B3GNT2, N-term tag, IgG pull-down.

B1: MAP4 (protein, UniProt P27816 2-1152, looked up)
Microtubule-associated …: ADLSLADALTEPSPDIEGEIKRDFIATLEAEAFDDVVGETVGKTDYIPLLDVDEKTGNSESKKKPCSETSQIEDTPSSKPTLLANGGHGVEGSDTTGSPTEFLEEKMAYQEYPNSQNWPEDTNFCFQPEQVVDPIQTDPFKMYHDDDLADLVFPSSATADTSIFAGQNDPLKDSYGMSPCNTAVVPQGWSVEALNSPHSESFVSPEAVAEPPQPTAVPLELAKEIEMASEERPPAQALEIMMGLKTTDMAPSKETEMALAKDMALATKTEVALAKDMESPTKLDVTLAKDMQPSMESDMALVKDMELPTEKEVALVKDVRWPTETDVSSAKNVVLPTETEVAPAKDVTLLKETERASPIKMDLAPSKDMGPPKENKKETERASPIKMDLAPSKDMGPPKENKIVPAKDLVLLSEIEVAQANDIISSTEISSAEKVALSSETEVALARDMTLPPETNVILTKDKALPLEAEVAPVKDMAQLPETEIAPAKDVAPSTVKEVGLLKDMSPLSETEMALGKDVTPPPETEVVLIKNVCLPPEMEVALTEDQVPALKTEAPLAKDGVLTLANNVTPAKDVPPLSETEATPVPIKDMEIAQTQKGISEDSHLESLQDVGQSAAPTFMISPETVTGTGKKCSLPAEEDSVLEKLGERKPCNSQPSELSSETSGIARPEEGRPVVSGTGNDITTPPNKELPPSPEKKTKPLATTQPAKTSTSKAKTQPTSLPKQPAPTTIGGLNKKPMSLASGLVPAAPPKRPAVASARPSILPSKDVKPKPIADAKAPEKRASPSKPASAPASRSGSKSTQTVAKTTTAAAVASTGPSSRSPSTLLPKKPTAIKTEGKPAEVKKMTAKSVPADLSRPKSTSTSSMKKTTTLSGTAPAAGVVPSRVKATPMPSRPSTTPFIDKKPTSAKPSSTTPRLSRLATNTSAPDLKNVRSKVGSTENIKHQPGGGRAKVEKKTEAAATTRKPESNAVTKTAGPIASAQKQPAGKVQIVSKKVSYSHIQSKCGSKDNIKHVPGGGNVQIQNKKVDISKVSSKCGSKANIKHKPGGGDVKIESQKLNFKEKAQAKVGSLDNVGHLPAGGAVKTEGGGSEAPLCPGPPAGEEPAISEAAPEAGAPTSASGLNGHPTLSGGGDQREAQTLDSQIQETSI
As to B1, the C-term flag under setting [1] worked out at 5. For the same molecule, under setting [2], the “C-term IgG” value stood at 0. Further, the “N-term FLAG” value under setting [3] came to 0. Also, the “N-term IgG” value under setting [4] was determined as 0.

B2: CHCHD3 (protein)
chain: GGTTSTRRVTFEADENENITVVKGIRLSENVIDRMKESSPSGSKSQRYSGAYGASVSDEELKRRVAEELALEQAKKESEDQKRLKQAKELDRERAAANEQLTRAILRERICSEEERAKAKHLARQLEEKDRVLKKQDAFYKEQLARLEERSSEFYRVTTEQYQKAAEEVEAKFKRYESHPVCADLQAKILQCYRENTHQTLKCSALATQYMHCVNHAKQSMLEKGG
For B2, under setting [1], the C-term flag was determined as 15. In addition, the “C-term IgG” value under setting [2] is given as 11. Further, under setting [3], the “N-term FLAG” value is 16. The “N-term IgG” value under setting [4] came to 10.

B3: GEMIN4 (protein)
chain: MDLGPLNICEEMTILHGGFLLAEQLFHPKALAELTKSDWERVGRPIVEALREISSAAAHSQPFAWKKKALIIIWAKVLQPHPVTPSDTETRWQEDLFFSVGNMIPTINHTILFELLKSLEASGLFIQLLMALPTTICHAELERFLEHVTVDTSAEDVAFFLDVWWEVMKHKGHPQDPLLSQFSAMAHKYLPALDEFPHPPKRLRSDPDACPTMPLLAMLLRGLTQIQSRILGPGRKCCALANLADMLTVFALTEDDPQEVSATVYLDKLATVISVWNSDTQNPYHQQALAEKVKEAERDVSLTSLAKLPSETIFVGCEFLHHLLREWGEELQAVLRSSQGTSYDSYRLCDSLTSFSQNATLYLNRTSLSKEDRQVVSELAECVRDFLRKTSTVLKNRALEDITASIAMAVIQQKMDRHMEVCYIFASEKKWAFSDEWVACLGSNRALFRQPDLVLRLLETVIDVSTADRAIPESQIRQVIHLILECYADLSLPGKNKVLAGILRSWGRKGLSEKLLAYVEGFQEDLNTTFNQLTQSASEQGLAKAVASVARLVIVHPEVTVKKMCSLAVVNLGTHKFLAQILTAFPALRFVEEQGPNSSATFMVSCLKETVWMKFSTPKEEKQFLELLNCLMSPVKPQGIPVAALLEPDEVLKEFVLPFLRLDVEEVDLSLRIFIQTLEANACREEYWLQTCSPFPLLFSLCQLLDRFSKYWQLPKEKRCLSLDRKDLAIHILELLCEIVSANAETFSPDVWIKSLSWLHRKLEQLDWTVGLRLKSFFEGHFKCEVPATLFEICKLSEDEWTSQAHPGYGAGTGLLAWMECCCVSSGISERMLSLLVVDVGNPEEVRLFSKGFLVALVQVMPWCSPQEWQRLHQLTRRLLEKQLLHVPYSLEYIQFVPLLNLKPFAQELQLSVLFLRTFQFLCSHSCRDWLPLEGWNHVVKLLCGSLTRLLDSVRAIQAAGPWVQGPEQDLTQEALFVYTQVFCHALHIMAMLHPEVCEPLYVLALETLTCYETLSKTNPSVSSLLQRAHEQRFLKSIAEGIGPEERRQTLLQKMSSF
Under setting [1], B3 had a C-term flag of 5. Further, the “C-term IgG” value under setting [2] is 0. Under setting [3], the “N-term FLAG” value amounted to 0. Further, under setting [4], the “N-term IgG” value is given as 0.

B4: EMILIN1 (protein)
chain: ASYPPRGFSLYTGSSGALSPGGPQAQIAPRPASRHRNWCAYVVTRTVSCVLEDGVETYVKYQPCAWGQPQCPQSIMYRRFLRPRYRVAYKTVTDMEWRCCQGYGGDDCAESPAPALGPASSTPRPLARPARPNLSGSSAGSPLSGLGGEGPGESEKVQQLEEQVQSLTKELQGLRGVLQGLSGRLAEDVQRAVETAFNGRQQPADAAARPGVHETLNEIQHQLQLLDTRVSTHDQELGHLNNHHGGSSSSGGSRAPAPASAPPGPSEELLRQLEQRLQESCSVCLAGLDGFRRQQQEDRERLRAMEKLLASVEERQRHLAGLAVGRRPPQECCSPELGRRLAELERRLDVVAGSVTVLSGRRGTELGGAAGQGGHPPGYTSLASRLSRLEDRFNSTLGPSEEQEESWPGAPGGLSHWLPAARGRLEQLGGLLANVSGELGGRLDLLEEQVAGAMQACGQLCSGAPGEQDSQVSEILSALERRVLDSEGQLRLVGSGLHTVEAAGEARQATLEGLQEVVGRLQDRVDAQDETAAEFTLRLNLTAARLGQLEGLLQAHGDEGCGACGGVQEELGRLRDGVERCSCPLLPPRGPGAGPGVGGPSRGPLDGFSVFGGSSGSALQALQGELSEVILSFSSLNDSLNELQTTVEGQGADLADLGATKDRIISEINRLQQEATEHATESEERFRGLEEGQAQAGQCPSLEGRLGRLEGVCERLDTVAGGLQGLREGLSRHVAGLWAGLRETNTTSQMQAALLEKLVGGQAGLGRRLGALNSSLQLLEDRLHQLSLKDLTGPAGEAGPPGPPGLQGPPGPAGPPGSPGKDGQEGPIGPPGPQGEQGVEGAPAAPVPQVAFSAALSLPRSEPGTVPFDRVLLNDGGYYDPETGVFTAPLAGRYLLSAVLTGHRHEKVEAVLSRSNQGVARVDSGGYEPEGLENKPVAESQPSPGTLGVFSLILPLQAGDTVCVDLVMGQLAHSEEPLTIFSGALLYGDPELEHA
In turn, B4 came in with a C-term flag under setting [1] of 3. Further, under setting [2], the “C-term IgG” value came out at 0. For the same molecule, the “N-term FLAG” value under setting [3] is on record as 2. Also, the “N-term IgG” value under setting [4] was 0.

B5: PDIA3 (protein)
chain: SDVLELTDDNFESRISDTGSAGLMLVEFFAPWCGHCKRLAPEYEAAATRLKGIVPLAKVDCTANTNTCNKYGVSGYPTLKIFRDGEEAGAYDGPRTADGIVSHLKKQAGPASVPLRTEEEFKKFISDKDASIVGFFDDSFSEAHSEFLKAASNLRDNYRFAHTNVESLVNEYDDNGEGIILFRPSHLTNKFEDKTVAYTEQKMTSGKIKKFIQENIFGICPHMTEDNKDLIQGKDLLIAYYDVDYEKNAKGSNYWRNRVMMVAKKFLDAGHKLNFAVASRKTFSHELSDFGLESTAGEIPVVAIRTAKGEKFVMQEEFSRDGKALERFLQDYFDGNLKRYLKSEPIPESNDGPVKVVVAENFDEIVNNENKDVLIEFYAPWCGHCKNLEPKYKELGEKLSKDPNIVIAKMDATANDVPSPYEVRGFPTIYFSPANKKLNPKKYEGGRELSDFISYLQREATNPPVIQEEKPKKKKKAQEDL
With B5, the C-term flag (Co-IP with FLAG antibody, C-terminally FLAG-tagged B3GNT2, mass spectrometry count, unit not given) came to 24. Moreover, the “N-term FLAG” value (Co-IP with FLAG antibody, N-terminally FLAG-tagged B3GNT2, mass spectrometry count, unit not given) came out at 14. The “C-term IgG” value (Co-IP with IgG control antibody, C-terminally FLAG-tagged B3GNT2, mass spectrometry count, unit not given) came to 0. Moreover, the “N-term IgG” value (Co-IP with IgG control antibody, N-terminally FLAG-tagged B3GNT2, mass spectrometry count, unit not given) was 0.
